To fix the notation:
B1: HCV E1 glycoprotein, H77 WT isolate [hepatitis C virus] / CD81 receptor [not stated] (parent complex)
chain 1: YQVRNSSGLYHVTNDCPNSSVVYEAADAILHTPGCVPCVREGNASRCWVAVTPTVATRDGKLPTTQLRRHIDLLVGSATLCSALYVGDLCGSVFLVGQLFTFSPRHHWTTQDCNCSIYPGHITGHRMAWNMMMNWSPTAALVVAQLLRIPQAIMDMIAGAHWGVLAGIKYFSMVGNWAKVLVVLLLFAGVDA
chain 2: MGVEGCTKCIKYLLFVFNFVFWLAGGVILGVALWLRHDPQTTNLLYLELGDKPAPNTFYVGIYILIAVGAVMMFVGFLGCYGAIQESQCLLGTFFTCLVILFACEVAAGIWGFVNKDQIAKDVKQFYDQALQQAVVDDDANNAKAVVKTFHETLDCCGSSTLTALTTSVLKNNLCPSGSNIISNLFKEDCHQKIDDLFSGKLYLIGIAAIVVAVIMIFEMILSMVLCCGIRNSSVY

The test covers variants of B1. Put plainly: CD81 receptor binding (method in S1 Text, not given); parent: 1; read off a plot.
Regarding chain 1 C16A, chain 1 C35A, the ratio to parent was roughly 0.8. Turning to chain 1 C47A, chain 1 C115A, the ratio to parent was roughly 0.85. With chain 1 R4C, chain 1 Q111C the figure was roughly 0.6. As to chain 1 C38A, chain 1 C113A, the ratio to parent was roughly 0.85. Regarding chain 1 C81A, chain 1 C90A, the ratio to parent was roughly 1.1.

With chain 1 E24C, chain 1 I29C, the ratio to parent was roughly 0.65.

Values taken from publication PMC10335668 (2023).
